This passage reports Kd, koff and kon results from article PMC6310132 (The Biochemical journal, 2016).

The test addresses N-ethylmaleimide-sensitive factor (NSF), pRSET-A fusion protein (mouse, UniProt P46460 1-744). In words: SPR. On the technique in general: SPR reads the build-up and loss of mass on a sensor chip optically.

Sequence of N-ethylmaleimide-sensitive factor (NSF), pRSET-A fusion protein (P46460 whole entry, the tested form may be a part): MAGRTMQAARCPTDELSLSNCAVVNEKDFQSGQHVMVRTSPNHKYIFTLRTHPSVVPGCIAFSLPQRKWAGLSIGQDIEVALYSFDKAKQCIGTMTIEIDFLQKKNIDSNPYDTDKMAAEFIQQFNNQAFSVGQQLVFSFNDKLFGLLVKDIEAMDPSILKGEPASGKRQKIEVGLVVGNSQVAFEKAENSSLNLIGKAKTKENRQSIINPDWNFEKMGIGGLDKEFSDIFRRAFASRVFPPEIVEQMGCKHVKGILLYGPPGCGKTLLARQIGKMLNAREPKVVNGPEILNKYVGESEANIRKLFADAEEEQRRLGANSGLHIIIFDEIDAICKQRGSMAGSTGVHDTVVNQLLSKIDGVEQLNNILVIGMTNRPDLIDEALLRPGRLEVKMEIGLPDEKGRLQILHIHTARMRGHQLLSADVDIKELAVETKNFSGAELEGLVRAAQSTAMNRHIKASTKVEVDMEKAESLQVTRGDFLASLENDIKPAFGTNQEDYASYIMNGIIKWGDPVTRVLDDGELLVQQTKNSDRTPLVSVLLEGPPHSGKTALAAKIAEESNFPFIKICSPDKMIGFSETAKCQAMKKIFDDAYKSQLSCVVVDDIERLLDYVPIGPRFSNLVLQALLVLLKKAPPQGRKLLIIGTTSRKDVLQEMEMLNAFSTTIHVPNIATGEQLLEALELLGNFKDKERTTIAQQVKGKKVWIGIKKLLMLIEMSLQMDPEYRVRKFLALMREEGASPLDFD

B1: rat organ of Corti dopamine D1A carboxy terminus, pRSET-A fusion protein (domain or fragment, UniProt P18901 338-425, looked up)
chain: QKAFSTLLGCYRLCPTTNNAIETVSINNNGAVVFSSHHEPRGSISKDCNLVYLIPHAVGSSEDLKKEEAGGIAKPLEKLSPALSVILD
The Kd is the constant that tells how readily two partners part at equilibrium. The low end stands for a tighter complex, the high end for a looser complex. One may read the koff as the first-order rate constant of dissociation. A higher koff goes with a short-lived complex. For orientation: kon means a measure of how fast the partners come together. A high value points to faster complex formation. B1 registered a Kd of 12.1 nM, a koff of 0.00274 s⁻¹ and a kon of 227000 M⁻¹ s⁻¹.
